Earlier results, collected in publication PMC10317158.
Blank lines part the entries; values can stand above or below the substance they belong to.

Key:
[1] = target: Mpp6 NIM (Saccharomyces cerevisiae) (UniProt P53725)
[2] = target: Sen1 NIM2 (Saccharomyces cerevisiae) (UniProt Q00416)
[3] = target: RNA polymerase II CTD pSer2/5 peptide CTD (Saccharomyces cerevisiae) (UniProt P04050)
[4] = target: RNA polymerase II CTD pSer2 peptide CTD (Saccharomyces cerevisiae) (UniProt P04050)
[5] = target: RNA polymerase II CTD pSer2/7 peptide CTD (Saccharomyces cerevisiae) (UniProt P04050)
[6] = target: RNA polymerase II CTD pThr4 peptide CTD (Saccharomyces cerevisiae) (UniProt P04050)

Kd [1]: 13.6 µM
Kd [2]: 1.75 µM
Kd [3]: 16 µM
Substance: Nrd1 CID (from UniProt P53617)

Kd [4]: 115 µM
Substance: Pcf11 CID (from UniProt P39081)

Kd [5]: 1.6 µM
Kd [6]: 6 µM
Substance: Rtt103 CID (from UniProt Q05543)
